Laboratory results: patent publication US20070026463A1, “Compositions and methods of mutant Nogo-66 domain proteins” (Wyeth, priority 2005, published 2007)
One block for each molecule: values may come before it.

How the values were obtained:
NgR1 = target: T1, NgR1 (Homo sapiens, UniProt Q9BZR6); test: Cell-based chemiluminescent SEAP binding assay on CHO cells expressing NGR1; conditions: CSPD substrate
T1 construct: expressed in transfected cells; host or cells: CHO
T1 sequence (Q9BZR6 27-447): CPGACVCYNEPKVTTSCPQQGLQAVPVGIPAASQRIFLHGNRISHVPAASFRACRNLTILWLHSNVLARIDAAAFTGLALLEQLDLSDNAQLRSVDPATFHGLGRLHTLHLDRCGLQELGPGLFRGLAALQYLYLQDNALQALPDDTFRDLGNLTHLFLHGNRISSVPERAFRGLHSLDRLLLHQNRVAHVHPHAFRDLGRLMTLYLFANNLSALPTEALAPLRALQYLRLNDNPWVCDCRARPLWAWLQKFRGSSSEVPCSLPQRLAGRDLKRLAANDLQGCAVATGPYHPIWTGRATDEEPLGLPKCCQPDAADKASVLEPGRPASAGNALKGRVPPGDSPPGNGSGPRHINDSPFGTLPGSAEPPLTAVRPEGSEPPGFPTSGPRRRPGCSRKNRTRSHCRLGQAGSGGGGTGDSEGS
Procedure: A cell-based chemiluminescent SEAP (secreted alkaline phosphastase) assay was used to confirm binding between NgR1 and the fusion reporter protein having the amino acid sequence of SEQ ID NO:16.
On Day 1: CHO cells expressing NGR1 are seeded into each well of a Biocoat poly-D-lysine cellware 96-well plate (Becton Dickinson).
1. The medium is removed and cells are washed with 200 μl/well of HBAH (Hanks' balanced salt solution, bovine serum albumin at 0.5 mg/ml) at room temperature.
2. 100 μl of conditioned medium containing the fusion protein (i.e., conditioned medium prior to resin purification in Example 2 above) is added (or 2 μg of purified fusion protein can be added) to each well. The wells are incubated at room temperature for 90 minutes.
3. The medium is removed from the wells. The cells are washed six times with 200 μl HBAH at room temperature. For each wash, the HBAH is incubated with the cells for 5 minutes and the plates gently swirled.
4. The HBAH is removed. The cells are then fixed with 200 μl of fixative buffer (acetone-formaldehyde (60%, 3%, 20 mM HEPES, pH 7.0)) for 15 seconds at room temperature.
5. The cells are then washed three times with HBS (Hanks' balanced salt solution), 5 minutes each time at room temperature.
6. Buffers are equilibrated to room temperature. […]
16. Read the plates on a LMAXII Luminometer (Molecular Devices, Sunnyvale, Calif.). […]

[1] = Aggregation of purified fusion protein by polyacrylamide gel electrophoresis; assay type: physicochemical; conditions: protein purified from HEK293 conditioned medium by TALON metal affinity chromatography
Procedure: The cDNA (SEQ ID NO:15) of the full-length fusion protein was inserted into the pSMED2 mammalian expression vector and the predicted sequence was confirmed by standard means. The vector was transfected into HEK293 cells and after 48 hours the medium in which the cells were grown was collected (referred to as conditioned medium) (see Example 2). After transfection, the conditioned medium was assayed to determine whether the fusion protein was secreted from the cells. The presence of the fusion protein in the conditioned medium was verified by Western blotting using an antibody against the alkaline phosphatase portion of the fusion. The fusion protein was purified from conditioned medium by TALON (BD/Clonetech) metal affinity chromatography (via the 6 His-tag of the fusion protein) (see Example 2).

[2] = target: T2, human Nogo Receptor-1 protein (NgR1) (Homo sapiens, UniProt Q9BZR6); test: Binding of purified fusion protein to NgR1-expressing COS7 cells, colorimetric alkaline phosphatase staining; conditions: colorimetric staining based on associated alkaline phosphatase activity
T2 construct: expressed in transfected cells; host or cells: COS7
T2 sequence (Q9BZR6 27-447): T1 sequence (Q9BZR6 27-447)
Procedure: Purified fusion protein was assayed for binding to COS7 cells expressing the human Nogo Receptor-1 protein (NgR1). […] Thus, a non-aggregated fusion protein was created that can be used as a reagent to explore the interaction of Nogo-66 with its receptor, or receptors, as well as to identify agents interfering in that interaction (see Example 3).

[3] = target: T3, human Nogo Receptor-1 protein (NgR1) (human, UniProt Q9BZR6 27-447); test: colorimetric alkaline phosphatase staining of COS7 cells expressing human NgR1
T3 construct: whole, on cells; also called NgR1 receptor
T3 sequence (looked up): T1 sequence (Q9BZR6 27-447)
Procedure: Purified fusion protein was assayed for binding to COS7 cells expressing the human Nogo Receptor-1 protein (NgR1). Binding was confirmed by colorimetric staining of NgR1 expressing cells based on associated alkaline phosphatase activity conferred by the fusion protein (see Example 3). Thus, a non-aggregated fusion protein was created that can be used as a reagent to explore the interaction of Nogo-66 with its receptor, or receptors, as well as to identify agents interfering in that interaction (see Example 3).

binding to NgR1 (NgR1): can bind to NgR1
binding to COS7 cells expressing human NgR1 [2]: Binding was confirmed
Molecule: SEQ ID NO:16: Fusion of signal peptide, human placental secreted alkaline phosphatase portion, enterokinase site, human Nogo-66 domain with Cys47 to Val, His6 tag
aggregation state (bands of higher molecular weight) [1]: does not aggregate
aggregation state (bands of higher molecular weight) ([1]; listed as fusion protein): not aggregated

binding result [3]: binds
B1: alkaline phosphatase mutant Nogo-66 domain fusion reporter protein (SEQ ID NO:16) (ligand)
chain: TSRSSGIIPVEEENPDFWNREAAEALGAAKKLQPAQTAAKNLIIFLGDGMGVSTVTAARILKGQKKDKLGPEIPLAMDRFPYVALSKTYNVDKHVPDSGATATAYLCGVKGNFQTIGLSAAARFNQCNTTRGNEVISVMNRAKKAGKSVGVVTTTRVQHASPAGTYAHTVNRNWYSDADVPASARQEGCQDIATQLISNMDIDVILGGGRKYMFRMGTPDPEYPDDYSQGGTRLDGKNLVQEWLAKRQGARYVWNRTELMQASLDPSVTHLMGLFEPGDMKYEIHRDSTLDPSLMEMTEAALRLLSRNPRGFFLFVEGGRIDHGHHESRAYRALTETIMFDDAIERAGQLTSEEDTLSLVTADHSHVFSFGGYPLRGSSIFGLAPGKARDRKAYTVLLYGNGPGYVLKDGARPDVTESESGSPEYRQQSAVPLDEETHAGEDVAVFARGPQAHLVHGVQEQTFIAHVMAFAACLEPYTACDLAPPAGTTDAAHPGNDDDDKLSRDKRIYKGVIQAIQKSDEGHPFRAYLESEVAISEELVQKYSNSALGHVNVTIKELRRLFLVDDLVDSLKHHHHHH
notes: Expressed in HEK293 cells and secreted; Used either purified on TALON resin or as conditioned medium; also called fusion protein; secreted alkaline phosphatase mutant Nogo-66 domain fusion reporter protein
